The record followed here is patent US20240084003A1 (SIMCERE ZAIMING PHARMACEUTICAL, published 2024).

The target of assay [1] is T1, human CD22-ECD-His protein (human, UniProt P20273 20-687).
T1 construct: Made in house in HEK293E; also called hCD22-ECD-His; recombinant human CD22-ECD His protein; not shown: His tag
T1 sequence: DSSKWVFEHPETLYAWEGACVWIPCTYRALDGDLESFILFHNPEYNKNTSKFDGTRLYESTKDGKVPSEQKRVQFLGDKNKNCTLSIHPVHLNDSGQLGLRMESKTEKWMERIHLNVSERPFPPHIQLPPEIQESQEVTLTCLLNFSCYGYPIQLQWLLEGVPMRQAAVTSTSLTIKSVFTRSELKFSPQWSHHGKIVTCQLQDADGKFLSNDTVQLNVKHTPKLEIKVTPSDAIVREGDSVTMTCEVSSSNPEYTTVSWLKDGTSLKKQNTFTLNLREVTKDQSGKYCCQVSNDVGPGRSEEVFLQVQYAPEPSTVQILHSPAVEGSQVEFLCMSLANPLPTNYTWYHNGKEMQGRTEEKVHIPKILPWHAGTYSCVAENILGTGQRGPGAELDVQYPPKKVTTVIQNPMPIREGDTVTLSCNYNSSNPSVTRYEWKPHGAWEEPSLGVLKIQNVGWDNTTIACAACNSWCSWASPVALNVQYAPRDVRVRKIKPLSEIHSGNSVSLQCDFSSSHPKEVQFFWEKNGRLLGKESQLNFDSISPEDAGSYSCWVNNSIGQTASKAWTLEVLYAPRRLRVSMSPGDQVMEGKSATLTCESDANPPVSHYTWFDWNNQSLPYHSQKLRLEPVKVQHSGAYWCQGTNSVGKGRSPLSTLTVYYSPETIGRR
The assay is described as follows: ELISA, Ab 0.001 nM. The essentials:
(§1)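 TMB colour read-out, stopped with 1.0 N HCl after 30 min at room temperature, measures binding of CD22 human-murine chimeric antibodies to plate-coated CD22-ECD-His (2 μg/mL, overnight 4 °C). Antibody and HRP secondary steps each ran 2 h at 37 °C.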
In general terms: ELISA stands for enzyme-linked immunosorbent assay.

Assay [2] deals with T2, murine CD22 protein (ACROBiosystems, SI2-M52Ha) (murine, UniProt P35329 22-708).
T2 construct: extracellular domain; also called murine CD22-ECD; murine CD22-ECD-His
T2 sequence (looked up): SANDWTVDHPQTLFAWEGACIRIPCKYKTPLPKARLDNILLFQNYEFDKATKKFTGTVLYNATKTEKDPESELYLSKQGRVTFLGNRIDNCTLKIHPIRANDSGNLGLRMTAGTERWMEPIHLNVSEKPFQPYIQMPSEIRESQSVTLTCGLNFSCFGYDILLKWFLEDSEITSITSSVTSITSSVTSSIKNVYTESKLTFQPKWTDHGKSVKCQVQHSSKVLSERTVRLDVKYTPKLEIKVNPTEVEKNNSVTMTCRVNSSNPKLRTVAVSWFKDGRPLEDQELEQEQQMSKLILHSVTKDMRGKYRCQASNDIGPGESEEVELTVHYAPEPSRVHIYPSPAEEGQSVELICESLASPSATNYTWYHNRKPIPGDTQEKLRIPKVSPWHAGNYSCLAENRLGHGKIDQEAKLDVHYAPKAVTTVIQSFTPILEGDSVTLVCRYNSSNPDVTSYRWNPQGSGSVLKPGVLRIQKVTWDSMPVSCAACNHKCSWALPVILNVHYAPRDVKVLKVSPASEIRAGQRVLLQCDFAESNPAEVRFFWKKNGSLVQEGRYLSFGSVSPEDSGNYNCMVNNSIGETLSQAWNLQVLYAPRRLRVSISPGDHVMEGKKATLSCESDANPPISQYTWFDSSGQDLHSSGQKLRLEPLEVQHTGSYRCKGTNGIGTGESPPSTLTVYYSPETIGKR
Kind of assay: ELISA, murine CD22-ECD-His coated. The essentials:
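First, CD22 (2 μg/mL, PBS) was coated at 4° C overnight. Second, wells were blocked with PBS containing 2% BSA for 2 h at room temperature. Third, antibody and then HRP secondary were each incubated 2 h at 37° C. Finally, TMB colour was stopped with HCl.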

In assay [3] the target is T1, human CD22-ECD-His protein. Kind of assay: ELISA, human CD22-ECD-His coated. The essentials:
as §1

The target in assay [4] is T1, human CD22-ECD-His protein. The assay is described as follows: ELISA, Ab 0.01 nM. The essentials:
as §1

Assay [5] concerns the target T1, human CD22-ECD-His protein. The assay is described as follows: ELISA, Ab 0.00001 nM. In outline: as §1
Another assay deals with T3, human CD22 domain5-7-His (human, UniProt P20273 414-687).
T3 construct: also called hCD22 domain5-7-His; not shown: His tag
T3 sequence: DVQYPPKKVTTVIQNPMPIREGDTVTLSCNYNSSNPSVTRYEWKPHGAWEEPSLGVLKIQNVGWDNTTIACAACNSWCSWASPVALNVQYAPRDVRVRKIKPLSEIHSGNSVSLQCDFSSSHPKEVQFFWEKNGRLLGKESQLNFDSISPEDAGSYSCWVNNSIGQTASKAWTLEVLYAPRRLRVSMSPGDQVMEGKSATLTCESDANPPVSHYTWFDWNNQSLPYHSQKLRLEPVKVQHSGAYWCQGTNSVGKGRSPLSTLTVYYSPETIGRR
The assay is described as follows: ELISA, human CD22 domain5-7-His coated.

Assay [6] deals with T1, human CD22-ECD-His protein. Kind of assay: ELISA, Ab 10.00 nM. In outline: as §1
The target of assay [7] is T1, human CD22-ECD-His protein. Kind of assay: ELISA, Ab 0.10 nM. In outline: as §1
Assay [8] has as its target T1, human CD22-ECD-His protein. Kind of assay: ELISA, Ab 0.0001 nM. The essentials: as §1
Assay [9] addresses T4, monkey CD22 protein (ACROBiosystems, SI2-R52Ha) (monkey (rhesus monkey in paragraph 148), UniProt H9G1X2 18-686).
T4 construct: extracellular domain; also called monkey CD22-ECD; monkey CD22-ECD-His
T4 sequence: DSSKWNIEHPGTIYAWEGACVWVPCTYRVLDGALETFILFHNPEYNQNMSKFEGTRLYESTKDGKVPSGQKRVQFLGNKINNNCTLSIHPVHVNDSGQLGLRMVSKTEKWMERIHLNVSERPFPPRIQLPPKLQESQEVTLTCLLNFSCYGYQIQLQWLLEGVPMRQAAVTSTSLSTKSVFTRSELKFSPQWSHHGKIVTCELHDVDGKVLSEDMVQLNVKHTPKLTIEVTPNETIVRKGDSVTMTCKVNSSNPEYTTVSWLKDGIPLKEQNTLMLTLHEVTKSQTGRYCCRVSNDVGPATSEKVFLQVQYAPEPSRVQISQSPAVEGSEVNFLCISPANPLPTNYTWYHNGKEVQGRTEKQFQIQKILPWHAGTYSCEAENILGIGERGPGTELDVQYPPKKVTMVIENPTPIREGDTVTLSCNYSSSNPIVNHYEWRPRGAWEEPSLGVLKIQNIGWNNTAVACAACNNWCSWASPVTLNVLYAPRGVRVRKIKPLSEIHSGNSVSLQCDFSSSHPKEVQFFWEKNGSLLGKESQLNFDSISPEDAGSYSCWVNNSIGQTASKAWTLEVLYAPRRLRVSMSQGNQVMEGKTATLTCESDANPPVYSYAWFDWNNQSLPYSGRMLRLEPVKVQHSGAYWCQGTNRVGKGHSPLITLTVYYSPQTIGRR
The assay is described as follows: ELISA, monkey CD22-ECD-His coated. As for the experimental part: In order to detect the binding activity of CD22 human-murine chimeric antibodies to CD22 protein, the purified human CD22-ECD-His protein obtained in Example 2 was diluted with PBS to a final concentration of 2 μg/mL, and then added to 96-well ELISA plate at 100 μl/well. The plate was sealed with plastic film and incubated overnight at 4° C., the plate was washed 2 times with PBS the next day, and then a blocking solution [PBS+2% (w/w) BSA] was added for blocking at room temperature for 2 hours. […] After incubation at 37° C. for 2 hours, the plate was washed 3 times with PBS. HRP (horseradish peroxidase)-labeled secondary antibody (purchased from Sigma, catalog number: A0170) was added, and incubated at 37° C. for 2 hours, and the plate was washed 5 times with PBS. TMB substrate was added at 50 μl/well, and incubated at room temperature for 30 minutes, then a stop solution (1.0 N HCl) was added at 50 μl/well.
In order to detect the species cross-binding activity of the chimeric antibodies, an ELISA plate was coated with commercial murine CD22 protein (ACROBiosystems, catalog number: SI2-M52Ha) and monkey CD22 protein (ACROBiosystems, catalog number: SI2-R52Ha), respectively, and the ELISA detection was performed according to the method in Example 5.1.

In assay [10] the target is T1, human CD22-ECD-His protein. Kind of assay: ELISA, Ab 100.00 nM. In outline:
as §1

B1: F2.173.9 (antibody, human IgG1, lambda, V domains shown)
VH: EVQLVESGGDLVKPGESLKLSCEASGFTFSNYAMSWVRQTPDRRLEWVATISSIGSFTYYSDSVKGRFTISRDNVKSTLHLQMNNLKSGDTAIYFCARLGVYFDSWGQGTTLTVSS
VL: QLVLTQSSSASFSLGASAKLTCTLSSQHSTYTIEWYQQQPHKPPKFVMEIKKDGSHYTGDGIPDRFSGSSSGADRYLSISNIQPEDETIYICGVSDMIKDQFVYVFGGGTKVTVLG
notes: Human-murine chimeric IgG1, lambda
Broadly, the EC50 (read off the curve) is the concentration needed to bring the measured effect to its halfway point. On to B1, for which the OD450 in [1] came to 0.65 OD450; in assay [4] it was 1.52 OD450; in assay [5], 0.18 OD450; in assay [6] it was 1.97 OD450; in assay [7], 1.93 OD450; in assay [8] it was 0.32 OD450. In [10], the OD450 amounted to 2.32 OD450. For the same molecule, the binding result (in assay [2]; in the assay with human CD22 domain5-7-His) was “no binding (tested: 100 nM)” each time. The “EC50 (read off the curve)” value in assay [3] is around 30 pM; in [9], 100 to 1000 pM.

B2: F1.172.13 (antibody, human IgG1, kappa, V domains shown)
VH: QVTLKESGPGILQSSQTLSLTCSFSGFSLSTSGMGVSWIRQPSGKGLEWLAHIYWDDDKRYNPSLKSRLTISKDTSRNQVFLKITSVDTADTATYYCARAPPPNWDEYYFDYWGQGTTLTVSS
VL: DIQMTQSPASLSASVGETVTITCRASGNIHNSLAWYQQKQGKSPQLLVHNAKTLADGVPSRFSGSGSGTQYSLKINSLQPEDFGSYYCQHFWSTPPFGGGTKLEIKR
notes: Human-murine chimeric IgG1, kappa
For the molecule B2, the OD450 in assay [1] is 0.74 OD450; in assay [4], 2.11 OD450; in assay [5], 0.1 OD450; in assay [6] it was 2.51 OD450; in [7] it was 2.53 OD450; in [8], 0.17 OD450. Besides, in assay [10], the OD450 turned out to be 2.87 OD450. Besides, the binding result (in assay [2]; with human CD22 domain5-7-His) was “no binding (tested: 100 nM)” in each case. Besides, the “EC50 (read off the curve)” value in assay [3] and in assay [9] was around 30 pM each time.
